B1: SP34 (peptide)
peptide: Ac-RDLANVK[S5]S[Nle]V[S5]ES-NH2
modifications: staple 8-12
SMILES: CCCC[C@@H]1NC(=O)[C@H](CO)NC(=O)[C@@](C)(NC(=O)[C@H](CCCCN)NC(=O)[C@@H](NC(=O)[C@H](CC(N)=O)NC(=O)[C@H](C)NC(=O)[C@H](CC(C)C)NC(=O)[C@H](CC(=O)O)NC(=O)[C@H](CCCNC(=N)N)NC(C)=O)C(C)C)CCCC=CCCC[C@@](C)(C(=O)N[C@@H](CCC(=O)O)C(=O)N[C@@H](CO)C(N)=O)NC(=O)[C@H](C(C)C)NC1=O
notes: also called Ac-RDLANVK$SNleV$ES-NH2
B2: SP9 (peptide)
peptide: Ac-RDL[S5]NVK[S5]SLVNES-NH2
modifications: staple 4-8
SMILES: CC(=O)N[C@@H](CCCNC(=N)N)C(=O)N[C@@H](CC(=O)O)C(=O)N[C@@H](CC(C)C)C(=O)N[C@@]1(C)CCCC=CCCC[C@@](C)(C(=O)N[C@@H](CO)C(=O)N[C@@H](CC(C)C)C(=O)N[C@H](C(=O)N[C@@H](CC(N)=O)C(=O)N[C@@H](CCC(=O)O)C(=O)N[C@@H](CO)C(N)=O)C(C)C)NC(=O)[C@H](CCCCN)NC(=O)[C@H](C(C)C)NC(=O)[C@H](CC(N)=O)NC1=O
notes: also called Ac-RDL$NVK$SLVNES-NH2
B3: SP33 (peptide)
peptide: Ac-RDLANVV[S5]SLV[S5]ES-NH2
modifications: staple 8-12
SMILES: CC(=O)N[C@@H](CCCNC(=N)N)C(=O)N[C@@H](CC(=O)O)C(=O)N[C@@H](CC(C)C)C(=O)N[C@@H](C)C(=O)N[C@@H](CC(N)=O)C(=O)N[C@H](C(=O)N[C@H](C(=O)N[C@@]1(C)CCCC=CCCC[C@@](C)(C(=O)N[C@@H](CCC(=O)O)C(=O)N[C@@H](CO)C(N)=O)NC(=O)[C@H](C(C)C)NC(=O)[C@H](CC(C)C)NC(=O)[C@H](CO)NC1=O)C(C)C)C(C)C
notes: also called Ac-RDLANVV$SLV$ES-NH2
B4: SP32 (peptide)
peptide: Ac-RDLANVI[S5]SLV[S5]ES-NH2
modifications: staple 8-12
SMILES: CC[C@H](C)[C@H](NC(=O)[C@@H](NC(=O)[C@H](CC(N)=O)NC(=O)[C@H](C)NC(=O)[C@H](CC(C)C)NC(=O)[C@H](CC(=O)O)NC(=O)[C@H](CCCNC(=N)N)NC(C)=O)C(C)C)C(=O)N[C@@]1(C)CCCC=CCCC[C@@](C)(C(=O)N[C@@H](CCC(=O)O)C(=O)N[C@@H](CO)C(N)=O)NC(=O)[C@H](C(C)C)NC(=O)[C@H](CC(C)C)NC(=O)[C@H](CO)NC1=O
notes: also called Ac-RDLANVI$SLV$ES-NH2
B5: SP35 (peptide)
peptide: Ac-RGLANVK[S5]SLV[S5]ES-NH2
modifications: staple 8-12
SMILES: CC(=O)N[C@@H](CCCNC(=N)N)C(=O)NCC(=O)N[C@@H](CC(C)C)C(=O)N[C@@H](C)C(=O)N[C@@H](CC(N)=O)C(=O)N[C@H](C(=O)N[C@@H](CCCCN)C(=O)N[C@@]1(C)CCCC=CCCC[C@@](C)(C(=O)N[C@@H](CCC(=O)O)C(=O)N[C@@H](CO)C(N)=O)NC(=O)[C@H](C(C)C)NC(=O)[C@H](CC(C)C)NC(=O)[C@H](CO)NC1=O)C(C)C
notes: also called Ac-RGLANVK$SLV$ES-NH2
B6: SP2 (peptide)
peptide: Ac-RDLADVK[S5]SLV[S5]ES-NH2
modifications: staple 8-12
SMILES: CC(=O)N[C@@H](CCCNC(=N)N)C(=O)N[C@@H](CC(=O)O)C(=O)N[C@@H](CC(C)C)C(=O)N[C@@H](C)C(=O)N[C@@H](CC(=O)O)C(=O)N[C@H](C(=O)N[C@@H](CCCCN)C(=O)N[C@@]1(C)CCCC=CCCC[C@@](C)(C(=O)N[C@@H](CCC(=O)O)C(=O)N[C@@H](CO)C(N)=O)NC(=O)[C@H](C(C)C)NC(=O)[C@H](CC(C)C)NC(=O)[C@H](CO)NC1=O)C(C)C
notes: also called Ac-RDLADVK$SLV$ES-NH2
B7: SP4 (peptide)
peptide: Ac-RNLADVK[S5]SLV[S5]ES-NH2
modifications: staple 8-12
SMILES: CC(=O)N[C@@H](CCCNC(=N)N)C(=O)N[C@@H](CC(N)=O)C(=O)N[C@@H](CC(C)C)C(=O)N[C@@H](C)C(=O)N[C@@H](CC(=O)O)C(=O)N[C@H](C(=O)N[C@@H](CCCCN)C(=O)N[C@@]1(C)CCCC=CCCC[C@@](C)(C(=O)N[C@@H](CCC(=O)O)C(=O)N[C@@H](CO)C(N)=O)NC(=O)[C@H](C(C)C)NC(=O)[C@H](CC(C)C)NC(=O)[C@H](CO)NC1=O)C(C)C
notes: also called Ac-RNLADVK$SLV$ES-NH2
B8: SP10 (peptide)
peptide: Ac-SAERDL[S5]DVK[S5]SLVNESEKR-NH2
modifications: staple 7-11
SMILES: CC(=O)N[C@@H](CO)C(=O)N[C@@H](C)C(=O)N[C@@H](CCC(=O)O)C(=O)N[C@@H](CCCNC(=N)N)C(=O)N[C@@H](CC(=O)O)C(=O)N[C@@H](CC(C)C)C(=O)N[C@@]1(C)CCCC=CCCC[C@@](C)(C(=O)N[C@@H](CO)C(=O)N[C@@H](CC(C)C)C(=O)N[C@H](C(=O)N[C@@H](CC(N)=O)C(=O)N[C@@H](CCC(=O)O)C(=O)N[C@@H](CO)C(=O)N[C@@H](CCC(=O)O)C(=O)N[C@@H](CCCCN)C(=O)N[C@@H](CCCNC(=N)N)C(N)=O)C(C)C)NC(=O)[C@H](CCCCN)NC(=O)[C@H](C(C)C)NC(=O)[C@H](CC(=O)O)NC1=O
B9: SP12 (peptide)
peptide: Ac-SAERDLADVK[S5]SLV[S5]ESEKR-NH2
modifications: staple 11-15
SMILES: CC(=O)N[C@@H](CO)C(=O)N[C@@H](C)C(=O)N[C@@H](CCC(=O)O)C(=O)N[C@@H](CCCNC(=N)N)C(=O)N[C@@H](CC(=O)O)C(=O)N[C@@H](CC(C)C)C(=O)N[C@@H](C)C(=O)N[C@@H](CC(=O)O)C(=O)N[C@H](C(=O)N[C@@H](CCCCN)C(=O)N[C@@]1(C)CCCC=CCCC[C@@](C)(C(=O)N[C@@H](CCC(=O)O)C(=O)N[C@@H](CO)C(=O)N[C@@H](CCC(=O)O)C(=O)N[C@@H](CCCCN)C(=O)N[C@@H](CCCNC(=N)N)C(N)=O)NC(=O)[C@H](C(C)C)NC(=O)[C@H](CC(C)C)NC(=O)[C@H](CO)NC1=O)C(C)C
B10: SP22 (peptide)
peptide: Ac-SA[S5]RDL[S5]DVKSSLVNESEKR-NH2
modifications: staple 3-7
SMILES: CC(=O)N[C@@H](CO)C(=O)N[C@@H](C)C(=O)N[C@@]1(C)CCCC=CCCC[C@@](C)(C(=O)N[C@@H](CC(=O)O)C(=O)N[C@H](C(=O)N[C@@H](CCCCN)C(=O)N[C@@H](CO)C(=O)N[C@@H](CO)C(=O)N[C@@H](CC(C)C)C(=O)N[C@H](C(=O)N[C@@H](CC(N)=O)C(=O)N[C@@H](CCC(=O)O)C(=O)N[C@@H](CO)C(=O)N[C@@H](CCC(=O)O)C(=O)N[C@@H](CCCCN)C(=O)N[C@@H](CCCNC(=N)N)C(N)=O)C(C)C)C(C)C)NC(=O)[C@H](CC(C)C)NC(=O)[C@H](CC(=O)O)NC(=O)[C@H](CCCNC(=N)N)NC1=O
B11: SP11 (peptide)
peptide: Ac-SAERDLA[S5]VKS[S5]LVNESEKR-NH2
modifications: staple 8-12
SMILES: CC(=O)N[C@@H](CO)C(=O)N[C@@H](C)C(=O)N[C@@H](CCC(=O)O)C(=O)N[C@@H](CCCNC(=N)N)C(=O)N[C@@H](CC(=O)O)C(=O)N[C@@H](CC(C)C)C(=O)N[C@@H](C)C(=O)N[C@@]1(C)CCCC=CCCC[C@@](C)(C(=O)N[C@@H](CC(C)C)C(=O)N[C@H](C(=O)N[C@@H](CC(N)=O)C(=O)N[C@@H](CCC(=O)O)C(=O)N[C@@H](CO)C(=O)N[C@@H](CCC(=O)O)C(=O)N[C@@H](CCCCN)C(=O)N[C@@H](CCCNC(=N)N)C(N)=O)C(C)C)NC(=O)[C@H](CO)NC(=O)[C@H](CCCCN)NC(=O)[C@H](C(C)C)NC1=O

Bridges are numbered along the chain shown (N, C = ends). [ ]: non-standard residue; d: D form. S5 = C=CCCC[C@](C)(N)C(=O)O; Nle = CCCC[C@H](N)C(=O)O Where only a bound is given, the exact number is not on record here.

For orientation: IC50 means the concentration at which inhibition is half-maximal.

The target in this experiment is T1, C-terminally 6x Histidine-tagged Beta-Catenin (aa 134-668, 59 KD) (UniProt P35222 134-668).
T1 construct: range 134-668; Armadillo repeat region
T1 sequence: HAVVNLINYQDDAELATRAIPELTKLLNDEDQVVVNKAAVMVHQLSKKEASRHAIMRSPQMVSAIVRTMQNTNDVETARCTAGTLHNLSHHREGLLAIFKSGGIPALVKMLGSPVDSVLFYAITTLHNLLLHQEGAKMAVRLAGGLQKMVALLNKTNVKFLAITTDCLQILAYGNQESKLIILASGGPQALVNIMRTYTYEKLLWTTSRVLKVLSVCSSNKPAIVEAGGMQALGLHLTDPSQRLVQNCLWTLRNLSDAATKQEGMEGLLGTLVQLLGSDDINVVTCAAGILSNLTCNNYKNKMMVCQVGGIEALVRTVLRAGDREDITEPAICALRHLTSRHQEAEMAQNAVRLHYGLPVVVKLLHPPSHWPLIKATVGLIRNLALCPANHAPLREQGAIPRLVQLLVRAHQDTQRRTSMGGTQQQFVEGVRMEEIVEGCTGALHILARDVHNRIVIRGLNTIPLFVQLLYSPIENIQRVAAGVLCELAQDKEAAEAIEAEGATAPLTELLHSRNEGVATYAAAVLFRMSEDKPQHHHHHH
Description: competitive fluorescence polarization, FAM-labelled linear probe as competitor, His-tagged beta-catenin 134-668. The method, then: The following experiments are performed at room temperature unless otherwise noted. First, an assay buffer is prepared composed of 25 mM Tris-Hcl pH 7.5, 200 mM Sodium Chloride, and 5 mM CHAPS. Next, 1M DTT is added to assay buffer to a final concentration of 2 mM. […] Forty μl of this protein stock is added to all but six wells of a 96 well plate (which will serve as the free peptide and Blank). Test competitor peptides are diluted from 1 mM DMSO stocks to 2× working stocks in assay buffer. Further dilutions are made in assay buffer-DMSO as to maintain a constant DMSO concentration in all wells. The dilution is carried out such that the peptides have a working concentration range of 40 μM-0.7 μM (2×). As a benchmark, a linear, non-crosslinked peptide competitor is prepared as above but with a working concentration range of 13-0.7 μM. Fifty μl of the competitor 2× stocks are added to the 40 μl of protein solution previously transferred into the assay 96 well plate. Next, a 10× stock of the fluorescent probe is prepared. The probe is identical to the linear benchmark peptide except for the n-terminal conjugation of a FAM flourophore with Beta-Alanine spacer. A 1 mM DMSO stock of the probe is serially diluted to a final concentration of 25 nM (10×) and 10 μl of this stock is added to all wells except for those that will serve as the blank. The assay plate is stored in the dark and the reaction is allowed to run at room temperature for three hours. The reaction is then read on a Biotek Synergy 2 with the following settings: 100 ms delay, 40 measurements per well, with excitation filters of […], and emission filters of […]. Data is then analyzed in Graphpad Prism.
In general terms: In fluorescence polarisation assays a small probe gives low polarisation when free and higher when bound to something large.
As for B1, the 50% inhibitory concentration (IC50) was no less than 100 µM.

Take B2: the half-maximal inhibitory concentration (IC50) was no less than 100 µM.

Turning to B3, the IC50 was no less than 100 µM.

Regarding B4, the IC50 is no less than 100 µM.

Consider B5, for which the IC50 is no less than 100 µM.

Take B6: the 50% inhibitory concentration (IC50) was no less than 100 µM.

B7: the concentration for half-maximal inhibition (IC50) was no less than 100 µM.

In the case of B8, the IC50 is no less than 100 µM.

As for B9, the 50% inhibitory concentration (IC50) was 85 µM.

Consider B10, for which the IC50 is no less than 100 µM.

In the case of B11, the IC50 is no less than 100 µM.

The record behind these values is US20170266254A1 (AILERON THERAPEUTICS, published 2017).
